In article doi:10.1101/2024.08.29.610189 (bioRxiv, 2024):

Assays:
[1] = target: Atg17–Atg31C (residues 174–196) complex (S. cerevisiae (budding yeast), UniProt Q06410 1-417; Q12421 174-196); test: ITC
[2] = target: T1, Atg17–Atg29–Atg31 complex, wild type (S. cerevisiae (budding yeast), UniProt Q06410 1-417; Q12092 1-213; Q12421 1-196); test: pull-down
T1 sequence (looked up) 1: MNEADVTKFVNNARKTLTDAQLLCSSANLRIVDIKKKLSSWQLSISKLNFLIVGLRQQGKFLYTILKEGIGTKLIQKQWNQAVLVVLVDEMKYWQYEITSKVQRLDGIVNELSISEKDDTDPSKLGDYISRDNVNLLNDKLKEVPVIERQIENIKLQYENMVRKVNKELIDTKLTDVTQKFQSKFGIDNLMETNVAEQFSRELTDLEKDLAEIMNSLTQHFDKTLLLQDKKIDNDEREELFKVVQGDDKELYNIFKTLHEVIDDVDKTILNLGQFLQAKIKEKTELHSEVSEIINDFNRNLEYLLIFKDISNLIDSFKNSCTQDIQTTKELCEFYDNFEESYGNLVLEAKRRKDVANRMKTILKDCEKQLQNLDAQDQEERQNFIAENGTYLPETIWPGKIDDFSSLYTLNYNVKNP
T1 sequence (looked up) 2: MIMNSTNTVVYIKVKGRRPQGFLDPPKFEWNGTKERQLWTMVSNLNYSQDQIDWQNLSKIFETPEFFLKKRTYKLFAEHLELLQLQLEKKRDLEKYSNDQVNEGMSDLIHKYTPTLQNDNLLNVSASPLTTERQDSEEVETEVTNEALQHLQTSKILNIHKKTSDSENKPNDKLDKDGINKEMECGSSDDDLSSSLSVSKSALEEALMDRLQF
T1 sequence (looked up) 3: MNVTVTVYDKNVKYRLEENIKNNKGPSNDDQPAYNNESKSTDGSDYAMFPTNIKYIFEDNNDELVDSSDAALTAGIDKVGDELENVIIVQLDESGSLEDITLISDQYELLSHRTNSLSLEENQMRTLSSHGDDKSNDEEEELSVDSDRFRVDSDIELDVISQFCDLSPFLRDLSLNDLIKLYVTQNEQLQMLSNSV

B1: Atg12^17BH–mGFP, wild type (Atg12 residues 42–62 with C-terminal mGFP) (domain or fragment, S. cerevisiae (budding yeast), UniProt P38316 42-62, looked up)
chain: TVQNRLELFSRRLSQLGLASD
Q: How did the Kd [1] turn out when B1 was run?
A: 3.8 µM

B2: GST–Atg12^17BH F50A (domain or fragment, S. cerevisiae (budding yeast), UniProt P38316 42-62, looked up)
chain: TVQNRLELASRRLSQLGLASD
Q: Does B2 bind [2]?
A: binds
